We go through one molecule from US7060495 (AVENTIS PHARMA DEUTSCHLAND, dated 2006).

The target of assay [1] is T1, carcinoembryonic antigen (CEA) (UniProt P06731 35-685, limits assumed).
T1 construct: Tumor-associated antigen coated on microtiter plates in the specificity enzyme activity test
T1 sequence (looked up): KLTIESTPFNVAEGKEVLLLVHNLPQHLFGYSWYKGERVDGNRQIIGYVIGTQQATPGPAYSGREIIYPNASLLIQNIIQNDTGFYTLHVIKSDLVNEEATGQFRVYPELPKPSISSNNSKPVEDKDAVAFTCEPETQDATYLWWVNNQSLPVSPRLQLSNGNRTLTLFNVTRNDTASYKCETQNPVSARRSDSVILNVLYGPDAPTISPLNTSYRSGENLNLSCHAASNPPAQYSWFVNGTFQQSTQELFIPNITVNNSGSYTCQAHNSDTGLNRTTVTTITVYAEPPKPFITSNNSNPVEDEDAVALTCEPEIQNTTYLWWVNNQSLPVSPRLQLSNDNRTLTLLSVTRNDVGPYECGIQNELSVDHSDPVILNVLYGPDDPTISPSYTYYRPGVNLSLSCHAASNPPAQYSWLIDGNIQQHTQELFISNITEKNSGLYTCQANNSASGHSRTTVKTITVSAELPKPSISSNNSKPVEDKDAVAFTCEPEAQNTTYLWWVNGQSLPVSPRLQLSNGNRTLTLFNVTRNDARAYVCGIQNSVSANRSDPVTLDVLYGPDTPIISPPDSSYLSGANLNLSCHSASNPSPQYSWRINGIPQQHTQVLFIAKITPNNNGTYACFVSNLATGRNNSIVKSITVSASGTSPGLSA
Kind of assay: specificity enzyme activity test (refers to Example 5).
From the text: (§1) The test determines the liberation of 4-methylumbelliferone from 4-methylumbelliferyl β-glucuronide by the β-glucuronidase portion of the fusion protein after the fusion protein has been bound via the sFv portion to an antigen. The measured fluorescence values are reported as relative fluorescence units (FU).

For assay [2], the target named is T2, polymorphic epithelial mucin (PEM) (UniProt P15941 24-1097, limits assumed).
T2 construct: Control antigen in the specificity enzyme activity test
Nature of the assay: specificity enzyme activity test: antigen-coated plate, bound fusion protein detected by its β-glucuronidase activity on 4-methylumbelliferyl β-glucuronide.
From the text: as §1

T2 sequence (P15941 24-1097 limits assumed): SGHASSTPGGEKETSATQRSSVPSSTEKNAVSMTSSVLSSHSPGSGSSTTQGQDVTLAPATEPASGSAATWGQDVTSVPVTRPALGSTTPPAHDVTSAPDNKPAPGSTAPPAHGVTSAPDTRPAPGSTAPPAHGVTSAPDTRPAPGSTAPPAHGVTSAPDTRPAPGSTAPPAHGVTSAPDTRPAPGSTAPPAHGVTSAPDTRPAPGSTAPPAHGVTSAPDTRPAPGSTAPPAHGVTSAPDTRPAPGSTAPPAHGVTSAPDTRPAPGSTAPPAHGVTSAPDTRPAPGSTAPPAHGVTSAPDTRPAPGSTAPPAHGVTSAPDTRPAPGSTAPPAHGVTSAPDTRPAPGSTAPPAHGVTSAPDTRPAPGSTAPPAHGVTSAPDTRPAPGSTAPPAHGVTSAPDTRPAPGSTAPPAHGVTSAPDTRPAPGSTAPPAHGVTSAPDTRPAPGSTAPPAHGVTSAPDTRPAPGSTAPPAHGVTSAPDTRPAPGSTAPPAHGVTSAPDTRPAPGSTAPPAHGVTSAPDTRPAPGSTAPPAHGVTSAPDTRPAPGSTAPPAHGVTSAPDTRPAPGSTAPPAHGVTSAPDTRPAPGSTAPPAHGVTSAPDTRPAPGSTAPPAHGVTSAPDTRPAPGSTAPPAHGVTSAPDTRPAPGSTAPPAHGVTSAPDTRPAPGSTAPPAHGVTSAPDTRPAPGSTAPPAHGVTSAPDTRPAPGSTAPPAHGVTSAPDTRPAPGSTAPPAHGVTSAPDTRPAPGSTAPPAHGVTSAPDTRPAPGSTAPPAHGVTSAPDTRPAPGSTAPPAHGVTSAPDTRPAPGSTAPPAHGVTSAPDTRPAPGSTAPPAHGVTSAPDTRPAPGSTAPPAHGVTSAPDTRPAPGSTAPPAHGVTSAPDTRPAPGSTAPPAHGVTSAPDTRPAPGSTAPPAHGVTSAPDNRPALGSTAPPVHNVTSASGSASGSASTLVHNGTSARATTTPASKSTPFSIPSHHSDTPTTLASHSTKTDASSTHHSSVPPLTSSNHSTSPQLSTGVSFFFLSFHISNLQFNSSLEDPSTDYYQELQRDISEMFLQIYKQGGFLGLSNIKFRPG

B1: sFv-huβ-Gluc fusion protein (humanized sFv 431/26 against CEA linked via a hinge to human β-glucuronidase, expressed in BHK cells) (other)
chain: QVQLQESGPGLVRPSQTLSLTCTVSGFTISSGYSWHWVRQPPGRGLEWIGYIQYSGITNYNPSLKSRVTMLVDTSKNQFSLRLSSVTAADTAVYYCAREDYDYHWYFDVWGQGTTVTVSSGGGGSGGGGSGGGGSDIQLTQSPSSLSASVGDRVTITCSTSSSVSYMHWYQQKPGKAPKLLIYSTSNLASGVPSRFSGSGSGTDFTFTISSLQPEDIATYYCHQWSSYPTFGQGTKLEIKELKTPLGDTTHTCPRCPAAAAVQGGMLYPQESPSRECKELDGLWSFRADFSDNRRRGFEEQWYRRPLWESGPTVDMPVPSSFNDISQDWRLRHFVGWVWYEREVILPERWTQDLRTRVVLRIGSAHSYAIVWVNGVDTLEHEGGYLPFEADISNLVQVGPLPSRLRITIAINNTLTPTTLPPGTIQYLTDTSKYPKGYFVQNTYFDFFNYAGLQRSVLLYTTPTTYIDDITVTTSVEQDSGLVNYQISVKGSNLFKLEVRLLDAENKVVANGTGTQGQLKVPGVSLWWPYLMHERPAYLYSLEVQLTAQTSLGPVSDFYTLPVGIRTVAVTKSQFLINGKPFYFHGVNKHEDADIRGKGFDWPLLVKDFNLLRWLGANAFRTSHYPYAEEVMQMCDRYGIVVIDECPGVGLALPQFFNNVSLHHHMQVMEEVVRRDKNHPAVVMWSVANEPASHLESAGYYLKMVIAHTKSLDPSRPVTFVSNSNYAADKGAPYVDVICLNSYYSWYHDYGHLELIQLQLATQFENWYKKYQKPIIQSEYGAETIAGFHQDPPLMFTEEYQKSLLEQYHLGLDQKRRKYVVGELIWNFADFMTEQSPTRVLGNKKGIFTRQRQPKSAAFLLRERYWKIANETRYPHSVAKSQCLENSPFT
modifications: glycosylated (galactose, mannose and other carbohydrates, Table 2)
notes: scFv-enzyme fusion
For the molecule B1, the results for the binding result in assay [1] and in assay [2] were “binds” and “no binding”, respectively.
